Measured values reported in US6218168A, “Process for preparing O-acetylserine, L-cysteine and L-cysteine-related products” (Consortium fur elektrochemische Inudstrie GmbH, priority 1995, dated 2001).
Changes are numbered by the printed parent chain.

B1: cysE-Del255: carboxyterminal deletion of 18 amino acids, terminal Asp255 (protein, UniProt P0A9D4 1-255, looked up, fragment)
chain: MSCEELEIVWNNIKAEARTLADCEPMLASFYHATLLKHENLGSALSYMLANKLSSPIMPAIAIREVVEEAYAADPEMIASAACDIQAVRTRDPAVDKYSTPLLYLKGFHALQAYRIGHWLWNQGRRALAIFLQNQVSVTFQVDIHPAAKIGRGIMLDHATGIVVGETAVIENDVSILQSVTLGGTGKSGGDRHPKIREGVMIGAGAKILGNIEVGRGAKIGAGSVVLQPVPPHTTAAGVPARIVGKPDSDKPSMD
B2: cysEX: mutant Thr167->Ala167 (protein, UniProt P0A9D4 1-273, looked up, variant T167A)
Serine acetyltransferase: MSCEELEIVWNNIKAEARTLADCEPMLASFYHATLLKHENLGSALSYMLANKLSSPIMPAIAIREVVEEAYAADPEMIASAACDIQAVRTRDPAVDKYSTPLLYLKGFHALQAYRIGHWLWNQGRRALAIFLQNQVSVTFQVDIHPAAKIGRGIMLDHATGIVVGEAAVIENDVSILQSVTLGGTGKSGGDRHPKIREGVMIGAGAKILGNIEVGRGAKIGAGSVVLQPVPPHTTAAGVPARIVGKPDSDKPSMDMDQHFNGINHTFEYGDGI
B3: cysEVI: double mutant Ser238, Ile256 (protein, UniProt P0A9D4 1-273, looked up, variant G238S M256I)
Serine acetyltransferase: B2 Serine acetyltransferase with A167T, G238S, M256I
B4: cysEXII: triple mutant Lys97->Gln97, Gly238->Ser238, Phe267->Leu267 (protein, UniProt P0A9D4 1-273, looked up, variant K97Q G238S F267L)
Serine acetyltransferase: B2 Serine acetyltransferase with K97Q, A167T, G238S, F267L
B5: cysEV: triple mutant Val237, Ser238, Ile256 (protein, UniProt P0A9D4 1-273, looked up, variant A237V G238S M256I)
Serine acetyltransferase: B2 Serine acetyltransferase with A167T, A237V, G238S, M256I
B6: cysEIV: double mutant Ala237->Val237, Gly238->Ser238 (protein, UniProt P0A9D4 1-273, looked up, variant A237V G238S)
Serine acetyltransferase: B2 Serine acetyltransferase with A167T, A237V, G238S
B7: cysEXXIII: triple mutant Ala167, Val237, Ser238 (protein, UniProt P0A9D4 1-273, looked up, variant T167A A237V G238S)
Serine acetyltransferase: B2 Serine acetyltransferase with A237V, G238S

Legend:
[1] = biological target: T1, serine acetyltransferase of cysteine-prototrophic revertant (Escherichia coli, UniProt P0A9D4, M256I); conditions: versus wild-type; cited from earlier work
T1 construct: host or cells: cysteine-prototrophic revertant of a cysteine-auxotrophic strain mutagenized with ethyl methanesulfonate (Denk and Bock 1987)
T1 sequence (P0A9D4 whole entry M256I): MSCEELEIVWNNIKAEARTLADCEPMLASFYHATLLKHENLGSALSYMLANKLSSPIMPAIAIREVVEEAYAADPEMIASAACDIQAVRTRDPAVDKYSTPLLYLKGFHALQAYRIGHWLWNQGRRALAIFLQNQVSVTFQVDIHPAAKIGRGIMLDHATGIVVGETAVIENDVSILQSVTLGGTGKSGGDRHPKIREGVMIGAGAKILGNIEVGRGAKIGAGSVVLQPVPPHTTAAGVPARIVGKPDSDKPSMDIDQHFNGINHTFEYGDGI

[2] = biological target: T1, serine acetyltransferase of cysteine-prototrophic revertant; assay: Literature: end product inhibition of serine acetyltransferase from a cysteine-prototrophic revertant; assay type: biochemical
Procedure: According to the literature reference mentioned, the feedback resistance of this mutant is elevated 10-fold. Consequently, the Ki of this mutant is approx. 0.01 mM, when comparison is made with the wild-type form.

[3] = biological target: wild-type form of serine acetyltransferase; conditions: 0.1 mM acetyl-coenzyme A and 1 mM L-serine; competitive; read-out: inhibitor constant Ki; cited from earlier work
serine acetyltransferase = assay: Serine acetyltransferase enzyme activity test with and without L-cysteine (inhibitor constant Ki, specific activity); assay type: biochemical, E. coli; conditions: for Ki: inhibitor L-cysteine
Description: Any method which enables the activity of the serine acetyltransferase to be determined in the presence of cysteine can be used for determining the cysteine sensitivity of this enzyme. For example, the serine acetyltransferase activity can be determined using the method described by Kredich and Tomkins, J. Biol. Chem. 241: 4955-4965 (1966). In this test, the enzyme test mixture contains the substrate, L-serine, and the cofactor, acetyl-coenzyme A. The reaction is started by adding enzyme and monitored, in a spectro photometer, by observing the decrease in absorption at 232 nm which is elicited by the cleavage of the thioester bond in the acetyl-coenzyme A.
The above-described enzyme test is suitable for determining the cysteine sensitivity of any serine acetyltransferase enzyme, including the enzymes which have a modified carboxyl terminus. Inhibition of the serine acetyltransferase activity is tested in the presence of differing concentrations of L-cysteine in the reaction mixture. The catalytic activity of the different serine acetyltransferase enzymes is determined in the presence and absence of L-cysteine, and the inhibitor constant, Ki, is ascertained from this (Kredich and Tomkins, J. Biol. Chem., 241, 4955-4965 (1966)).
In order to investigate the biochemical basis of the cysteine secretion of the revertants, the activity of the serine acetyltransferase was determined in vitro, and the ability of cysteine to inhibit the enzyme was measured. For the determination, use was made of S30 extracts (cell homogenates centrifuged at 30,000 g and 4° C. for 20 minutes) of the selected revertants, the starting strains and the comparison strain, E. coli W3110 (ATTC 27325).
The biochemical parameters such as enzyme activity and inhibitor constant, Ki, were determined in an analogous manner to that described in Example 1.
The plasmids resulting from this cloning were designated pACYC184/cysE-Del in accordance with the extent of their deletion (cf. FIG. 9 for the plasmid map). Determination of the enzymic activity and the inhibitor constant, Ki, and also the cross-feeding test, were carried out in analogy with the description in Example 1. DNA sequence analysis was used to confirm that the deletions had been correctly introduced.
Determination of the enzymic activity and of the inhibitor constant Ki, and also the cross-feeding test, were carried out in analogy with the description in Example 1.

production strain JM15 = assay: Cysteine production in 1 L fermenter, JM15 with plasmid-encoded cysE alleles; assay type: cell-based, E. coli; conditions: 48 h, JM15 transformed with plasmid
Procedure: Influence of different, plasmid-encoded cysE alleles on the production of L-cysteine or products derived from L-cysteine in a 1 L fermenter using the host strain JM15 20 mL of LB medium (1% tryptone, 0.5% yeast extract, 0.5% NaCl) contained in a 100 mL Erlenmeyer flask were inoculated with a single colony of the production strain JM15 (CGSC#5042) which had been transformed with the respective cysE plasmid.
After having been incubated for 7 hours in a bacterial shaker (30° C., 150 rpm), the respective preliminary cultures were transferred to 100 mL of SM1 medium. The SM1 medium contained 5 g/L glucose, 5 mg/L vitamin B1, 3 g/l KH2 PO4, 12 g/L K2 HPO4, 0.3 g/L MgSO4×7 H2 O, 0.1 g/L NaCl, 5 g/L (NH4)2 SO4, 14.7 mg/L CaCl2×2 H2 O, 2 mg/L FeSO4×2 H2 O, 1 g/L Na3 citrate×2 H2 O, 1 ml/L trace element solution and 25 mg/L tetracycline. The trace element solution was composed of 0.15 g/L Na2 MoO4×2 H2 O, 2.5 g/L H3 BO3, 0.7 g/L CoCl2×6 H2 O, 0.25 g/L CuSO4×5 H2 O, 1.6 g/L MnCl2×4 H2 O and 0.3 g/L ZnSO4×7 H2 O. The cultures were shaken in 1 L Erlenmeyer flasks at 30° C. and at 150 rpm for 17 h. After this incubation, the OD600 was between 4 and 5. The subsequent fermentation was carried out in Braun-Melsungen BIOSTAT M research fermenters. A culturing vessel having a total volume of 2 L was used.
The fermentation medium contained 15 g/L glucose, 5 g/L NaCl, 0.3 g/L MgSO4×7 H2 O, 15 mg/L CaCl2×2 H2 O, 75 mg/L FeSO4×7 H2 O, 1 g/L Na3 citrate×2 H2 O, 1.5 g/L KH2 PO4, 1 mL of trace element solution (see above), 5 mg/L vitamin B1, 2.5 g/L yeast extract (Difco), 2.5 g/L tryptone (Difco) and 25 mg/L tetracycline.
The glucose concentration in the fermenter was initially adjusted to a value of 15 g/L by pumping in a 700 g/L (w/v) (sterilized) glucose solution, and the pH was adjusted to 7.0 by pumping in a 25% NH4 OH solution. After an OD600 of 10 had been reached, 300 mg per hour were supplied from a sterile 100 g/L (w/v) stock solution of thiosulfate. 100 mL of preliminary culture were pumped into the fermenter vessel for the inoculation. The starting volume was approximately 1 L. The cultures were initially stirred at 400 rpm and aerated with 1.5 vvm of compressed air which had been sterilized by passing through a sterile filter. The fermentation was carried out at a temperature of 30° C.
The pH was maintained at a value of 7.0 by means of automatic correction with 25% NH4 OH. The oxygen saturation in the fermentation broth had at no time during the fermentation to fall below 20%; the stirring speed was used to ensure this. The glucose content of the nutrient solution, the optical density and the cysteine content were determined at two- to three-hourly intervals. The glucose content was determined enzymically using a glucose analyzer from YSI. The concentration of the glucose was adjusted to between 10 and 20 g/L by means of continuously feeding in this compound.
The content of cysteine in the medium was determined […] from the cell-free super-natant of the sample using the method of Gaitonde, M. K. (1967), Biochem. J. 104, 627-633.
The fermentation was terminated after 44-50 h.

JM15attλ::cysE strains = assay: Cysteine production in 1 L fermenter, chromosomally encoded cysE alleles; assay type: cell-based, E. coli; conditions: single chromosomal copy
Procedure: For the purpose of being integrated into the chromosomal attachment site (attλ), the cysE alleles cysEIV, cysEX and cysEXI were cloned into the plasmid pRS551 (Simons et al., 1987, Gene 53: 85-96). For this, each cysE allele was amplified by PCR from the corresponding cysE plasmid. The oligonucleotides which were used, i.e. cysE-fwl and cysE-revl, are described in Example 1. The amplification was carried out as described in Example 3. The resulting fragments were cleaved with EcoRI/BamHI, purified through an agarose gel and ligated into vector pRS551 which had been cleaved with EcoRI and BamHI. This afforded the vector pRS551-based recombinant plasmids pRScysEIV, X and XI.
A heterogeneous lambda lysate, which contained recombinant cysE allele-carrying λRS45 derivatives in addition to λRS45 phages, was produced in vivo by homologous recombination by means of preparing a plate lysate on a pRScysE-carrying recA^+ strain (e.g. YMC9, ATCC 3397) using the λRS45 phage (Simons et al., 1987, Gene 53: 85-96).
The cysE strain JM15, which was infected with the heterogeneous lambda lysate and subsequently plated on kanamycin-containing (25 mg/L) LB plates, was used for selecting for the recombinant RS45 derivatives. The lysogenic, kanamycin-resistant clones which were obtained were then tested for their ability to grow on minimal medium plates without cysteine. A clone which was in each case cysteine-prototrophic was selected and used for preparing a homogeneous cysE λ lysate (by means of UV induction, Simons et al., 1987, Gene 53: 85-96).
The JM15 stain was infected with these homogeneous cysE λ lysates which were obtained in each case. The resulting JM15attλ::cysE strains were cultured as described in Example 6. Instead of tetracycline, the respective media in each case contained 25 mg of kanamycin per L as the selection agent.

[4] = Table 1b, carboxyterminal deletions
[5] = Table 1a, 1 mM L-serine, 0.1 mM acetyl-CoA
[6] = Table 1a, serine acetyltransferase activity
[7] = Table 2, alleles from chemical mutagenesis
[8] = Table 4, alleles from site-specific mutagenesis

Row | Molecule | Cysteine yield (production strain JM15) [g/L] | Ki (serine acetyltransferase; [5]) [µM] | spec. act. (serine acetyltransferase; [6]) [µmol/min/mg] | Ki (serine acetyltransferase; [8]) [µM] | other results
1 | N[C@@H](CS)C(=O)O [L-cysteine] |  |  |  |  | feedback resistance elevated [1]: 10 fold; Ki [2]: ~10 µM; Ki [3]: 1.1 µM
2 | B1 | 3.9 |  |  |  | spec. act. (serine acetyltransferase; [4]): 0.624 μmol/min x mg; Ki (serine acetyltransferase; [4]): 30 µM; Ki (serine acetyltransferase; Table 6, carboxyterminal deletions): 30 µM
3 | B2 | 3.4 | 50 | 0.156 |  | Ki (serine acetyltransferase; [7]): 50 µM; yields of cysteine (JM15attλ::cysE strains): 1.8 g/L
4 | B3 | 1.4 | 10 | 0.075 | 10 | 
5 | B4 | 1.2 | 40 | 0.254 |  | Ki (serine acetyltransferase; [7]): 40 µM
6 | B5 | 1.3 | 10 | 0.246 | 10 | 
7 | B6 | 1.6 | 40 | 0.170 | 40 | yields of cysteine (JM15attλ::cysE strains): 0.5 g/L
8 | B7 | 2.7 | 2300 | 0.085 | 2300 | 
